Measurements reported in PMC11441981.

B1: GST-tagged CG9590 (Drosophila FAM114A) [Drosophila] / Vap33 [Drosophila (endogenous in S2 cells)] (parent)
chain 1: MAKNPKKEEDGGNDWAQSDEDDNWDDWGDDDDKFVHVEKEQQPQEKVSSRNDAKGTAENQEKLETPRISAPATASATSSSWGLWGGKLSSVLTTATEGLGTITTQVNQGLNQIIGVPDPEELARINVAEKAEKAAKAPPEENVDDEKESSAAFGLDFVTNLGSKVLNTGLDTLEGIGKKTMTILQDNDPKLMNKRKLLGLEANSPNLSAVLLEAKKEADQMEQSLQQLQLKRQKAQLRFEILFENYCGLVHFEALEILSKESRLKLDTLLDAVSGNARAELQETINEVKELIELEDLDVESEGDYEAEELSERLAATIKDAELGIQFDDIANHWTQSLSWLTSEEATAADLEQAYAKSIHALSEACALEMCKLHKIAELLLVKPHHSTANEVDGVVNLCQQFNGHLQGLSHRFAAVLSGKSETEESKGRVSTFFSEMLSAVQFIEKAYKLFTPILQMGAV
chain 2: MSKSLFDLPLTIEPEHELRFVGPFTRPVVTIMTLRNNSALPLVFKIKTTAPKRYCVRPNIGKIIPFRSTQVEICLQPFVYDQQEKNKHKFMVQSVLAPMDADLSDLNKLWKDLEPEQLMDAKLKCVFEMPTAEANAENTSGGGAVGGGTGAAGGGSAGANTSSASAEALESKPKLSSEDKFKPSNLLETSESLDLLSGEIKALRECNIELRRENLHLKDQITRFRSSPAVKQVNEPYAPVLAEKQIPVFYIAVAIAAAIVSLLLGKFFL

Variants of: B1
Assay: GST pull-down from S2 cell lysate with mass spectrometry (volcano plot of spectral intensities)
Conditions: three biological replicates, read off a plot

screen value [log2] | Variant
5.2 | chain 1 MAKNPKKEEDGGNDWAQSDEDDNADDAGDDDDKFVHVEKEQQPQEKVSSRNDAKGTAENQEKLETPRISAPATASATSSSWGLWGGKLSSVLTTATEGLGTITTQVNQGLNQIIGVPDPEELARINVAEKAEKAAKAPPEENVDDEKESSAAFGLDFVTNLGSKVLNTGLDTLEGIGKKTMTILQDNDPKLMNKRKLLGLEANSPNLSAVLLEAKKEADQMEQSLQQLQLKRQKAQLRFEILFENYCGLVHFEALEILSKESRLKLDTLLDAVSGNARAELQETINEVKELIELEDLDVESEGDYEAEELSERLAATIKDAELGIQFDDIANHWTQSLSWLTSEEATAADLEQAYAKSIHALSEACALEMCKLHKIAELLLVKPHHSTANEVDGVVNLCQQFNGHLQGLSHRFAAVLSGKSETEESKGRVSTFFSEMLSAVQFIEKAYKLFTPILQMGAV [chain 1 W24A W27A]
